This note sets out measurements from patent US20110217237A1 (AbbVie / Abbott, published 2011).

Residue numbers refer to the chain shown, from its start.

B1: h1A11.C6 (antibody, V domains shown)
VH: EVQLVESGGGLVQPGGSLRLSCAASGFTFRNFPMAWVRQAPGKGLEWVATISSSDGWPTYRDSVKGRFTISRDNAKSSLYLQMNSLRAEDTAVYYCSRGYYNSPFAYWGQGTLVTVSS
VL: DIQMTQSPSSLSASVGDRVTITCRASEDIYSNLAWYQQKPGKAPKLLIYDTNNLADGVPSRFSGSGSGTDFTLTISSLQPEDFATYYCQQYNNYPPTFGQGTKLEIK
notes: also called h1A11.C6 VH / h1A11VL.1
B2: h1A11.G3 (antibody, V domains shown)
VH: B1 VH with N31Y, A35S, T50S, S53G, P58A, T59S, S77N, S97A
VL: B1 VL with E27Q, D28E, S31R, A43S, Y49F, N52S, N53V, F71S, N92T, N93Y
notes: also called h1A11.G3 VH / h1A11.E12 VL
B3: h1A11.A8 (antibody, V domains shown)
VH: B1 VH with R30G, A35S, T50S, G56S, P58A, Y60I, R61G, S77N
VL: B1 VL
notes: also called h1A11.A8 VH / h1A11VL.1
B4: h1A11.E12 (antibody, V domains shown)
VH: B1 VH with N31Y, S53G, G56E, T59N, S77N, S97A, Y107F
VL: B1 VL with E27Q, D28E, S31R, A43S, Y49F, N52S, N53V, F71S, N92T, N93Y
notes: also called h1A11.E12 VH / h1A11.E12 VL
B5: h1A11.A11 (antibody, V domains shown)
VH: B1 VH with N31H, G56D, T59N
VL: B1 VL
notes: also called h1A11.A11 VH / h1A11VL.1
B6: h1A11.B4 (antibody, V domains shown)
VH: B1 VH with R30S, W57T, P58T, T59Y, S77N, S97A
VL: B1 VL with E27Q, S31Y, Y49F, N53I, Y87F, N92D, N93Y, Y94V
notes: also called h1A11VH.1 / h1A11.B4 VL
B7: h1A11.A2 (antibody, V domains shown)
VH: B1 VH with R30S, W57T, P58T, T59Y, S77N, S97A
VL: B1 VL with E27Q, S31I, A43S, Y49F, N53D, N92D, N93Y, Y94V
notes: also called h1A11VH.1 / h1A11.A2 VL
B8: h1A11.F5 (antibody, V domains shown)
VH: B1 VH with N31H, G56A, T59S, S77N, S97A
VL: B1 VL with E27Q, D28E, S31R, A43S, Y49F, N52S, N53V, F71S, N92T, N93Y
notes: also called h1A11.F5 VH / h1A11.E12 VL

T6 sequence (Q9JI71 27-686): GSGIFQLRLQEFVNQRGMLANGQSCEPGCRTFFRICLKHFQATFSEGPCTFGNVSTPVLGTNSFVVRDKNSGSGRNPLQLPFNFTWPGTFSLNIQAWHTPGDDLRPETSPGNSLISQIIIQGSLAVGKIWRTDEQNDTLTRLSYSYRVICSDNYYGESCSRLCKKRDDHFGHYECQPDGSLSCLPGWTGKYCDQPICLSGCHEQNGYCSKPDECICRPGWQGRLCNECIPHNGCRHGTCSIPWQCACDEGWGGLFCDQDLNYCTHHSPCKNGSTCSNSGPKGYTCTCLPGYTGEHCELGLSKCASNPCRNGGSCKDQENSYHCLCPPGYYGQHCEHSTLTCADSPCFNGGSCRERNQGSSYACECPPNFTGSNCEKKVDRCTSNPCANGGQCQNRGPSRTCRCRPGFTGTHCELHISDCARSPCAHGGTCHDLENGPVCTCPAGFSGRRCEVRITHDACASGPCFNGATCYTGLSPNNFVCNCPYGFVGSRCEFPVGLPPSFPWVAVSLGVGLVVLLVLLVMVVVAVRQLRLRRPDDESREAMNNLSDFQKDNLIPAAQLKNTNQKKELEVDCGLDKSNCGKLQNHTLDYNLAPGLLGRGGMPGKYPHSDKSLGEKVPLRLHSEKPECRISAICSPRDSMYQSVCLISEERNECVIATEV
T3 sequence (Q9JI71 27-532): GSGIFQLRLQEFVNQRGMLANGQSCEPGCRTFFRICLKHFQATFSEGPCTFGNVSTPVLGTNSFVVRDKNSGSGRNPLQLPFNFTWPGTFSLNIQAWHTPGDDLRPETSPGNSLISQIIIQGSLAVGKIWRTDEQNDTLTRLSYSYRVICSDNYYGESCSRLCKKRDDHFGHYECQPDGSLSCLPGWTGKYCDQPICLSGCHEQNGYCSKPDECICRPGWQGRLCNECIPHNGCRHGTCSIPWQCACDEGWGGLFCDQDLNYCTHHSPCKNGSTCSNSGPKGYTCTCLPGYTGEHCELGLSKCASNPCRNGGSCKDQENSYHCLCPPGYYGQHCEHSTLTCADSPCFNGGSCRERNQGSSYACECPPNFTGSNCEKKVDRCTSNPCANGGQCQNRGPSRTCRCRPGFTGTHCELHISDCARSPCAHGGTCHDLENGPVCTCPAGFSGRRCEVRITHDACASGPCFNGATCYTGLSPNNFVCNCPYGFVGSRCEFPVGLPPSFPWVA

The first assay deals with T1, human DLL4 extracellular domain (human, UniProt Q9NR61 27-529).
T1 construct: purified recombinant ECD; biotin-labelled or 6xHis-tagged depending on the assay; also called huDLL4 ECD; hu DLL4 ECD
T1 sequence (Q9NR61 27-529 limits assumed): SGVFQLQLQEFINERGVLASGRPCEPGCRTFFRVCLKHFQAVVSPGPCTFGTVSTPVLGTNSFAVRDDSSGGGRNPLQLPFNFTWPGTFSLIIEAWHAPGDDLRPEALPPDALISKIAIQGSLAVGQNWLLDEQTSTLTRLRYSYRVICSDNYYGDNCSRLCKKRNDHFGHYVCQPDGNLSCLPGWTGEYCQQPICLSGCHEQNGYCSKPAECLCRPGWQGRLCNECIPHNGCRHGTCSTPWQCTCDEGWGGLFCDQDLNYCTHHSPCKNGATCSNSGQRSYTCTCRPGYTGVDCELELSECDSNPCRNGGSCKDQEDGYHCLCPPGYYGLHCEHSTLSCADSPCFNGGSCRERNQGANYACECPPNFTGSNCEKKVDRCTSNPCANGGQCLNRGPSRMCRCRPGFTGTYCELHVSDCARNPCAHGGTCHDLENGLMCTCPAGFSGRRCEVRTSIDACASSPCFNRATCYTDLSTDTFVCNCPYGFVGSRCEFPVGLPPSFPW
Briefly: SPR (Biacore). As to the method: (§1) The BIACORE® surface plasmon resonance assay (Biacore, Inc., Piscataway, N.J., US) determines the affinity of antibodies with kinetic measurements of on-rate and off-rate constants. Binding of DLL4 antibodies to a purified recombinant DLL4 extracellular domain (ECD) was determined by surface plasmon resonance-based measurements with a Biacore® instrument (either a Biacore 2000, Biacore 3000, or Biacore T100; GE Healthcare, Piscataway, N.J., US) using running buffer HBS-EPB (10 mM HEPES [pH 7.4], 150 mM NaCl, 3 mM EDTA, 0.1 mg/ml BSA and 0.005% surfactant P20) at 25° C. For example, approximately 9000 RU of goat anti-human Fc specific polyclonal antibody (Thermo Fisher Scientific Inc., Rockford, Ill., US) diluted in 10 mM sodium acetate (pH 4.5) is directly immobilized across a CMS research grade biosensor chip using a standard amine coupling kit according to manufacturer's instructions and procedures at 25 μg/ml. Unreacted moieties on the biosensor surface were blocked with ethanolamine. For kinetic analysis, rate equations derived from the 1:1 Langmuir binding model were fitted simultaneously to multiple antigen injections (using global fit analysis) with the use of Scrubber 2 (BioLogic Software), Biacore Biaevaluation 4.0.1 software or Biacore T100 Evaluation software. Purified antibodies were diluted in running buffer for capture across goat anti-human Fc reaction surfaces. Antibodies to be captured as a ligand (1 μg/ml) were injected over reaction matrices at a flow rate of 10 μl/min. During the assay, all measurements were referenced against the capture surface alone (i.e., with no captured anti-DLL4 antibody). […] The equilibrium dissociation constant KD (M) of the reaction between antibodies and the target antigen was then calculated from the kinetic rate constants by the following formula: KD=Koff/Kₒₙ. Binding was recorded as a function of time and kinetic rate constants were calculated.
The molecule B1 displayed a Kd of 0.04 nM, a koff of 7.18e-06 s⁻¹ and a kon of 178000 M⁻¹ s⁻¹.

B2 came in with a Kd of 0.087 nM, a koff of 9.39e-06 s⁻¹ and a kon of 109000 M⁻¹ s⁻¹.

B3 displayed a Kd of 0.062 nM, an off-rate (koff) of 1.08e-05 s⁻¹ and a kon of 174000 M⁻¹ s⁻¹.

Regarding B4, the affinity, expressed as Kd, was 0.22 nM; the koff was 3.26e-05 s⁻¹; the kon was 149000 M⁻¹ s⁻¹.

For the molecule B5, binding was characterised by a dissociation constant (Kd) of 0.15 nM, the koff turned out to be 2.66e-05 s⁻¹ and the kon turned out to be 183000 M⁻¹ s⁻¹.

For the molecule B6, the affinity, expressed as Kd, was 5.2 nM; the koff is 0.000823 s⁻¹; the kon stood at 157000 M⁻¹ s⁻¹.

In turn, B7 showed a Kd of 3 nM, a koff of 0.000421 s⁻¹ and a kon of 142000 M⁻¹ s⁻¹.

B8 returned a Kd of 0.075 nM, a koff of 9.82e-06 s⁻¹ and a kon of 131000 M⁻¹ s⁻¹.

The next assay addresses T2, cynomolgus monkey DLL4 extracellular domain (cynomolgus monkey).
T2 construct: extracellular domain; also called cynoDLL4 ECD; Cyno DLL4
In words: SPR (Biacore). As to the method:
as §1
As for B1, the Kd came to 0.18 nM, the koff came out at 3.12e-05 s⁻¹ and the kon was 171000 M⁻¹ s⁻¹.

Molecule B2 showed an equilibrium dissociation constant (Kd) of 0.17 nM, a koff of 1.73e-05 s⁻¹ and a kon of 99000 M⁻¹ s⁻¹.

The molecule B3 had a Kd of 0.15 nM, a koff of 2.4e-05 s⁻¹ and a kon of 160000 M⁻¹ s⁻¹.

Regarding B4, the Kd turned out to be 0.28 nM, the koff turned out to be 3.84e-05 s⁻¹ and the on-rate (kon) turned out to be 137000 M⁻¹ s⁻¹.

In the case of B5, the Kd was found to be 0.2 nM, the koff was 3.35e-05 s⁻¹ and the kon is 170000 M⁻¹ s⁻¹.

B6 gave a Kd of 6.9 nM, a koff of 0.00099 s⁻¹ and a kon of 143000 M⁻¹ s⁻¹.

B7 registered a Kd of 3.9 nM, an off-rate (koff) of 0.000527 s⁻¹ and a kon of 134000 M⁻¹ s⁻¹.

Consider B8, for which binding was put at a Kd of 0.17 nM, the koff was found to be 2e-05 s⁻¹ and the kon stood at 118000 M⁻¹ s⁻¹.

A further assay has as its target T3, mouse DLL4 extracellular domain (mouse, UniProt Q9JI71 27-532).
T3 construct: extracellular domain; also called muDLL4 ECD; murine DLL4
In words: SPR (Biacore). As to the method: as §1
In turn, B1 yielded a Kd of 0.12 nM, a koff of 2.34e-05 s⁻¹ and a kon of 203000 M⁻¹ s⁻¹.

In turn, B2 showed a Kd of 0.35 nM, a koff of 4.04e-05 s⁻¹ and a kon of 117000 M⁻¹ s⁻¹.

As for B3, binding was put at a Kd of 0.18 nM, the koff is 3.27e-05 s⁻¹ and the kon was determined as 187000 M⁻¹ s⁻¹.

In turn, B4 gave a Kd of 0.35 nM, a koff of 5.44e-05 s⁻¹ and a kon of 156000 M⁻¹ s⁻¹.

B5 registered a Kd of 0.18 nM, a koff of 3.54e-05 s⁻¹ and a kon of 198000 M⁻¹ s⁻¹.

B6 yielded a Kd of 5.2 nM, a koff of 0.0025 s⁻¹ and a kon of 479000 M⁻¹ s⁻¹.

B7 returned a Kd of 5 nM, a koff of 0.000904 s⁻¹ and a kon of 181000 M⁻¹ s⁻¹.

B8 returned a Kd of 0.28 nM, a koff of 3.97e-05 s⁻¹ and a kon of 143000 M⁻¹ s⁻¹.

For another assay, the target named is T4, rat DLL4 extracellular domain (rat, UniProt D3ZHH1 28-530).
T4 construct: extracellular domain; also called ratDLL4 ECD
T4 sequence (D3ZHH1 28-530): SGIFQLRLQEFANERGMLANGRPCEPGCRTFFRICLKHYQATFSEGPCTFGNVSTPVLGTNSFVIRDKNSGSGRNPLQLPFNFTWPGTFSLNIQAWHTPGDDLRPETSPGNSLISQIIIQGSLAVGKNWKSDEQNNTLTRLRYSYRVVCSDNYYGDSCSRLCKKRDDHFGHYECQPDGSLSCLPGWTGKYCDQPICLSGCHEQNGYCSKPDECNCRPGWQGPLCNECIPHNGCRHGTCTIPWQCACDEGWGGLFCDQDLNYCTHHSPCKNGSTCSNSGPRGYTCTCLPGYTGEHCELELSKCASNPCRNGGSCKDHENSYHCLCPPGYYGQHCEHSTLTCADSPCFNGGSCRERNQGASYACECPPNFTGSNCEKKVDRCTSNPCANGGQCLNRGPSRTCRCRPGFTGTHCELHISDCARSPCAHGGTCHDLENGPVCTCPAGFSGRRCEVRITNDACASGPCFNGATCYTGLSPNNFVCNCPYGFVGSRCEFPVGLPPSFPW
Briefly: SPR (Biacore). The procedure: as §1
The molecule B1 came in with a Kd of 18 nM, a koff of 0.00305 s⁻¹ and a kon of 169000 M⁻¹ s⁻¹.

The molecule B2 returned a Kd of 8.6 nM, a koff of 0.00101 s⁻¹ and a kon of 118000 M⁻¹ s⁻¹.

B3 came in with a Kd of 47 nM, a koff of 0.0065 s⁻¹ and a kon of 139000 M⁻¹ s⁻¹.

B4 showed a Kd of 1.6 nM, a koff of 0.000175 s⁻¹ and a kon of 108000 M⁻¹ s⁻¹.

B5: the affinity, expressed as Kd, was 8.8 nM; the koff is 0.00102 s⁻¹; the kon is 116000 M⁻¹ s⁻¹.

As for B6, the binding result is given as “no binding”.

For B7, the binding result is “no binding”.

On to B8, for which the affinity, expressed as Kd, was 5.8 nM; the koff was 0.000679 s⁻¹; the kon was 116000 M⁻¹ s⁻¹.

The target of another assay is T5, human DLL4, full length, on cells (human, UniProt Q9NR61 27-685). Briefly: cell-based or functional assay.
T5 sequence (Q9NR61 27-685 limits assumed): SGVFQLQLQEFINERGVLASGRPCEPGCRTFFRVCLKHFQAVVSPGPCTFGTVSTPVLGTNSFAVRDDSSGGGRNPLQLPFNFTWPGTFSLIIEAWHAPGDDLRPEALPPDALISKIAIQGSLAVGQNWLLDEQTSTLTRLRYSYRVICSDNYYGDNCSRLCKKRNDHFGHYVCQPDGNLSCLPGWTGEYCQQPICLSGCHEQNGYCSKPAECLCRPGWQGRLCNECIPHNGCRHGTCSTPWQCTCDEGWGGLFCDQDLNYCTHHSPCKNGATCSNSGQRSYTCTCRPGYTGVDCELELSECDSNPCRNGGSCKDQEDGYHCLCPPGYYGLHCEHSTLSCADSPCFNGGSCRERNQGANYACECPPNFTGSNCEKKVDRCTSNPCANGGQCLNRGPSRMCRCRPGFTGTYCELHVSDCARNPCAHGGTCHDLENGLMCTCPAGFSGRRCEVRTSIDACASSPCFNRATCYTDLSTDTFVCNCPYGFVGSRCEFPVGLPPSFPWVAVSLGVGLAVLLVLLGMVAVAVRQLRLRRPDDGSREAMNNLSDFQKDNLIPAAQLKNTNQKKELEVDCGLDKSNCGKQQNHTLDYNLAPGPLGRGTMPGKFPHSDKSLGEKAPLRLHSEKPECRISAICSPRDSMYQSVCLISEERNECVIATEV
Consider B1, for which the “Inhibition of Notch Activation via DLL4 cells, Notch reporter assay” value (shortened to “Inhibition”) is 0.894 nM.

In the case of B2, the “Inhibition” value came to 1.84 nM.

For B3, the “Inhibition” value was found to be 1.33 nM.

Turning to B4, the “Inhibition” value was 0.208 nM.

Regarding B5, the “Inhibition” value stood at 0.904 nM.

B6: the “Inhibition” value amounted to 3.28 nM.

Take B7: the “Inhibition” value was found to be 3.68 nM.

As for B8, the “Inhibition” value stood at 0.484 nM.

A further assay has as its target T6, mouse DLL4 on cells (mouse, UniProt Q9JI71 27-686). Briefly: cell-based or functional assay.
On to B1, for which the “Inhibition” value amounted to 1.19 nM.

Take B2: the “Inhibition” value turned out to be 2.35 nM.

In the case of B3, the “Inhibition” value was 1.25 nM.

For B4, the “Inhibition” value came to 0.266 nM.

On to B5, for which the “Inhibition” value worked out at 1.18 nM.

Regarding B6, the “Inhibition” value came to 1.08 nM.

With B7, the “Inhibition” value was found to be 0.854 nM.

In the case of B8, the “Inhibition” value is 0.649 nM.

The target in the next assay is T5, human DLL4, full length, on cells. Briefly: FACS, direct binding to DLL4 cells. As to the method: (§2) Stable cell lines overexpressing cell-surface DLL4 were harvested from tissue culture flasks, washed four times and resuspended in phosphate buffered saline (PBS) containing 1% bovine serum albumin and 1 mM CaCl₂ (FACS buffer). 1.5×10⁵ cells were incubated with antibodies at various concentrations in FACS buffer for 60 minutes on ice. […] Following an incubation on ice (4° C., 60 minutes), cells were washed three times and resuspended in FACS buffer. Fluorescence was measured using a Becton Dickinson FACSCalibur-HTS (Becton Dickinson, San Jose, Calif., US). Data were analyzed using Graphpad Prism software and EC₅₀ values were reported as the concentration of antibody to achieve 50% of maximal DLL4 antibodies binding to DLL4 expressing cells.
(§3) The hu1A11.1 affinity matured clones (Table 22) were expressed, purified, and further characterized in vitro. Their activities of binding to cell-bound DLL4 and inhibiting cell-bound DLL4-induced Notch activation were further examined using methods described in Examples 1.3 and 1.6, and are summarized in Table 26 (below).
Consider B1, for which the EC50 was 2.45 nM.

B2: the EC50 came to 3.59 nM.

B3 had an EC50 of 3.16 nM.

Take B4: the EC50 was determined as 0.996 nM.

Molecule B5 gave an EC50 of 2.48 nM.

The molecule B6 had an EC50 of 2.15 nM.

Molecule B7 came in with an EC50 of 2.38 nM.

For B8, the EC50 was 1.17 nM.

The target of the next assay is T6, mouse DLL4 on cells. In words: FACS, direct binding to DLL4 cells. The procedure:
as §2, §3
B1 registered an EC50 of 0.517 nM.

For B2, the EC50 is 1.4 nM.

B3 registered an EC50 of 0.744 nM.

Molecule B4 had an EC50 of 1.61 nM.

For B5, the EC50 came out at 0.5 nM.

Regarding B6, it took 0.665 nM to reach a half-maximal effect (EC50).

B7: a half-maximal effect (EC50) was put at 0.634 nM.

Turning to B8, the EC50 stood at 0.46 nM.
